Experimental data taken from US20110152183A1 (Novo Nordisk, published 2011).
Numbering of substitutions follows the chain as printed. One block for each binder: values may come before it. Bridge positions count the residues as written; N and C are the ends.

What was measured:
[1] = molecular target: T1, Amylin 3(a) receptor (human calcitonin receptor (CTa) coexpressed with RAMP-3) on BHK570 cells (human, UniProt P30988 25-474); assay: cell-based or functional assay
T1 sequence (P30988 whole entry, looked up): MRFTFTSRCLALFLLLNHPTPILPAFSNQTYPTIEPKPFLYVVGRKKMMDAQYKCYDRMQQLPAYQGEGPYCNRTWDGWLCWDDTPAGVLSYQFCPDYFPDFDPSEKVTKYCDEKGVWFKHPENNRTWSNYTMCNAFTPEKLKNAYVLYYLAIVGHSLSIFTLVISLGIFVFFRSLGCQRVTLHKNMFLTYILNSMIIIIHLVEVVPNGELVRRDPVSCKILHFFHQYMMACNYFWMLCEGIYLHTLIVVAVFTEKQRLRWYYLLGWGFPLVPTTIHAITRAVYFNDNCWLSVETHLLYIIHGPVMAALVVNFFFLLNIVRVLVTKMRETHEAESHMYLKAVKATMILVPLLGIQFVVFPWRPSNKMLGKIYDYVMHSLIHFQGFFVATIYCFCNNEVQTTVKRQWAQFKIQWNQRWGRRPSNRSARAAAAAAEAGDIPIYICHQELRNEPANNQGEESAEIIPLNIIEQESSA
T1 sequence (O60896 whole entry, looked up): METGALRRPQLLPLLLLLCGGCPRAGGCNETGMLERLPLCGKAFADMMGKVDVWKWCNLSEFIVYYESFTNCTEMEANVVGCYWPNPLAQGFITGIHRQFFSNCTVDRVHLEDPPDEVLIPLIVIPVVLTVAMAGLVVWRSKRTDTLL

[2] = molecular target: Amylin 3(a) receptor (human calcitonin receptor (CTa) coexpressed with RAMP-3) on BHK570 cells (human, UniProt P30988 25-474); assay: cell-based or functional assay; remark: listed apart in the source

EC50 (pM) in luciferase assay [1]: 3 pM
B1: Amylin (1-8)-[Arg11,Arg18]sCT (9-27)-amylin (33-37) (peptide)
peptide: KCNTATCALGRLSQELHRLQTYPRTNTGSNTY
HELM: PEPTIDE1{K.C.N.T.A.T.C.A.L.G.R.L.S.Q.E.L.H.R.L.Q.T.Y.P.R.T.N.T.G.S.N.T.Y.[am]}$PEPTIDE1,PEPTIDE1,2:R3-7:R3$$$V2.0; N-terminus assumed
SMILES: CC(C)C[C@H](NC(=O)[C@H](C)NC(=O)[C@@H]1CSSC[C@H](NC(=O)[C@@H](N)CCCCN)C(=O)N[C@@H](CC(N)=O)C(=O)N[C@@H]([C@@H](C)O)C(=O)N[C@@H](C)C(=O)N[C@@H]([C@@H](C)O)C(=O)N1)C(=O)NCC(=O)N[C@@H](CCCNC(=N)N)C(=O)N[C@@H](CC(C)C)C(=O)N[C@@H](CO)C(=O)N[C@@H](CCC(N)=O)C(=O)N[C@@H](CCC(=O)O)C(=O)N[C@@H](CC(C)C)C(=O)N[C@@H](Cc1c[nH]cn1)C(=O)N[C@@H](CCCNC(=N)N)C(=O)N[C@@H](CC(C)C)C(=O)N[C@@H](CCC(N)=O)C(=O)N[C@H](C(=O)N[C@@H](Cc1ccc(O)cc1)C(=O)N1CCC[C@H]1C(=O)N[C@@H](CCCNC(=N)N)C(=O)N[C@H](C(=O)N[C@@H](CC(N)=O)C(=O)N[C@H](C(=O)NCC(=O)N[C@@H](CO)C(=O)N[C@@H](CC(N)=O)C(=O)N[C@H](C(=O)N[C@@H](Cc1ccc(O)cc1)C(N)=O)[C@@H](C)O)[C@@H](C)O)[C@@H](C)O)[C@@H](C)O

EC50 (pM) in luciferase assay [2]: 10 pM
B2: [His1]amylin (1-8)-[His11,His18,His24]sCT (9-27)-amylin (33-37) (peptide)
peptide: B1 peptide with K1H, R11H, R18H, R24H
HELM: PEPTIDE1{H.C.N.T.A.T.C.A.L.G.H.L.S.Q.E.L.H.H.L.Q.T.Y.P.H.T.N.T.G.S.N.T.Y.[am]}$PEPTIDE1,PEPTIDE1,2:R3-7:R3$$$V2.0; N-terminus assumed
SMILES: CC(C)C[C@H](NC(=O)[C@H](C)NC(=O)[C@@H]1CSSC[C@H](NC(=O)[C@@H](N)Cc2c[nH]cn2)C(=O)N[C@@H](CC(N)=O)C(=O)N[C@@H]([C@@H](C)O)C(=O)N[C@@H](C)C(=O)N[C@@H]([C@@H](C)O)C(=O)N1)C(=O)NCC(=O)N[C@@H](Cc1c[nH]cn1)C(=O)N[C@@H](CC(C)C)C(=O)N[C@@H](CO)C(=O)N[C@@H](CCC(N)=O)C(=O)N[C@@H](CCC(=O)O)C(=O)N[C@@H](CC(C)C)C(=O)N[C@@H](Cc1c[nH]cn1)C(=O)N[C@@H](Cc1c[nH]cn1)C(=O)N[C@@H](CC(C)C)C(=O)N[C@@H](CCC(N)=O)C(=O)N[C@H](C(=O)N[C@@H](Cc1ccc(O)cc1)C(=O)N1CCC[C@H]1C(=O)N[C@@H](Cc1c[nH]cn1)C(=O)N[C@H](C(=O)N[C@@H](CC(N)=O)C(=O)N[C@H](C(=O)NCC(=O)N[C@@H](CO)C(=O)N[C@@H](CC(N)=O)C(=O)N[C@H](C(=O)N[C@@H](Cc1ccc(O)cc1)C(N)=O)[C@@H](C)O)[C@@H](C)O)[C@@H](C)O)[C@@H](C)O

EC50 (pM) in luciferase assay [1]: 50 pM
Binder: {4‑carboxy‑4‑(19-carboxy-nonadecanoylamino)butyryl}-KCNTATCALGRLSQELHRLQTYPRTNTGSNTY-NH2 (disulfide 2-7)
